Data published in PMC7183766.

Molecular target: SpirNT(A*)-biotin (on streptavidin beads) (Drosophila melanogaster) (UniProt Q9U1K1)
Assay: TIRF microscopy of actin filaments on protein-coated beads

SpirNT(A*)-biotin (on streptavidin beads) (Drosophila melanogaster), sequence (Q9U1K1 1-490): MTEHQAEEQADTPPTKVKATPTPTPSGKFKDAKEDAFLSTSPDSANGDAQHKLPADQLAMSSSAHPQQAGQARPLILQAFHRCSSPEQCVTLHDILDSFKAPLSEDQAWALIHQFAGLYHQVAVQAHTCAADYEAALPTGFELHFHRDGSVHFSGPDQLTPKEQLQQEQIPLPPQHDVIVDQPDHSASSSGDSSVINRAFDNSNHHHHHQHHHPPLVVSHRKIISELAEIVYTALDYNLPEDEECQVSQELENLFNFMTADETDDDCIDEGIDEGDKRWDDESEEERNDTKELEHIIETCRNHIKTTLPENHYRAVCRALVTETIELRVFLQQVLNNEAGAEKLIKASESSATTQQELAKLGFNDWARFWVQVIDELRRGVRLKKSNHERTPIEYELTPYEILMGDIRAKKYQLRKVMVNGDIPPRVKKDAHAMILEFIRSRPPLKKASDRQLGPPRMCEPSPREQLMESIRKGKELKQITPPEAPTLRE

actin filaments (Acanthamoeba castellani actin) (natural protein)
koff: 0.011 s⁻¹
